# Article PMC9758184
# Read-outs that look alike come from different tables or passages of the source.
# Tests used:
# Assay in all cases: SEC; Superdex 200 HR 10/30, cold 1x PBS pH 7.2; native size of each protein from its own elution volume against size standards, dark- or light-incubated (same result in both); PmSB-LOV C53A run only in the mixture with PmlR2
# [1] = biological target: PmlR2 (Pseudomonas mendocina light-inducible transcriptional regulator), tag-free recombinant protein (Pseudomonas mendocina NBRC 14162)
# [2] = biological target: PmSB-LOV (Pseudomonas mendocina Sensory box-LOV), wild-type tag-free recombinant protein (Pseudomonas mendocina NBRC 14162)
# [3] = biological target: PmSB-LOV (Pseudomonas mendocina Sensory box-LOV), wild-type tag-free recombinant protein (Pseudomonas mendocina NBRC 14162); remark: listed apart in the source
# [4] = biological target: PmlR2-N (1-113 aa), tag-free recombinant protein containing only the HTH DNA-binding domain (Pseudomonas mendocina NBRC 14162)
substance,measurement,setting,value
"PmlR2 (Pseudomonas mendocina light-inducible transcriptional regulator), tag-free recombinant protein (natural protein)",stoichiometry N,[1],6
"PmSB-LOV (Pseudomonas mendocina Sensory box-LOV), wild-type tag-free recombinant protein (natural protein)",stoichiometry N,[2],3
same,stoichiometry N,[3],2
"PmlR2-N (1-113 aa), tag-free recombinant protein containing only the HTH DNA-binding domain (domain or fragment)",stoichiometry N,[4],2
